The record followed here is US20090285803A1 (published 2009).

Sequences and labels used below:
B1: AP-Nogo66 (ligand, UniProt Q9NQC3 1055-1120, looked up)
chain: RIYKGVIQAIQKSDEGHPFRAYLESEVAISEELVQKYSNSALGHVNCTIKELRRLFLVDDLVDSLK
notes: Produced in conditioned medium of 293 cells; also called Alkaline Phosphatase-Nogo66 fusion; not shown: Alkaline Phosphatase (AP)

In one assay the target is T1, Nogo Receptor (human, UniProt Q9BZR6 27-447).
T1 construct: whole, on cells; also called NgR; NgR1
T1 sequence (looked up): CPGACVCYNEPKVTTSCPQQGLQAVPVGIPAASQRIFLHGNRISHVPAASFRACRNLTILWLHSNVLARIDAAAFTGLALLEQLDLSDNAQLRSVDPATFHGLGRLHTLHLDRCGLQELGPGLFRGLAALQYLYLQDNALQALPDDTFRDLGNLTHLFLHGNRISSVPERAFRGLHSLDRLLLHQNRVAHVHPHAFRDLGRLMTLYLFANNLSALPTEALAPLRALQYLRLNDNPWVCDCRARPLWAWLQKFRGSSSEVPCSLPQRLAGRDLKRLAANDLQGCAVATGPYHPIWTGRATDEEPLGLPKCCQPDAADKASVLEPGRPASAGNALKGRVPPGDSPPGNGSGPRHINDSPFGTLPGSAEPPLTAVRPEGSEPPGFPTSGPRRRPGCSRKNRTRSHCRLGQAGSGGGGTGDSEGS
Put plainly: expression cloning; AP-fusion bait (20-50 nM) on transfected COS7 cells, chromogenic AP staining. An excerpt:
(§1) To identify novel receptors for inhibitory myelin proteins, an expression cloning approach was taken. As bait, constructs were generated that fused Alkaline Phosphatase (AP) to the N- and/or C-terminus of the following characterized myelin inhibitors (human cDNA used): Nogo66, two additional inhibitory domains of NogoA (NiRD2 and NiG20) (Oertle T, J Neurosci. 2003, 23(13): 5393-406), MAG, and OMgp. These constructs were transfected into 293 cells to produce conditioned medium (in DMEM/2% FBS) containing the bait proteins. The cDNA library used in the screen was comprised of full-length human cDNA clones in expression-ready vectors generated by Origene. These cDNAs were compiled, arrayed, and pooled. Pools of approximately 100 cDNA's were transiently transfected into COS7 cells.
(§2) In particular, on Day 1, COS7 cells were plated at a density of 85, 000 cells per well in 12-well plates. On Day 2, 1 mg of pooled cDNA's were transfected per well using the lipid-based transfection reagent FuGENE 6 (Roche). On Day 4, screening was performed. […] The cells were washed once in AP Buffer (100 mM NaCl, 5 mM MgCl₂, 100 mM Tris pH 9.5), and incubated in chromogenic substrate (Western Blue, Promega), and analyzed for presence of reaction product one hour after incubation, and again after overnight incubation. […]

The assay “AP-Nogo66” has as its target B1. The description is as above.
Text: as §1, §2

In the case of B1, the binding result with Nogo Receptor is recorded as “binds”.

B2: Homo sapiens leukocyte immunoglobulin-like receptor, subfamily B (with TM and ITIM domains), member 2 (LILRB2) (receptor)
chain: QTGTIPKPTLWAEPDSVITQGSPVTLSCQGSLEAQEYRLYREKKSASWITRIRPELVKNGQFHIPSITWEHTGRYGCQYYSRARWSELSDPLVLVMTGAYPKPTLSAQPSPVVTSGGRVTLQCESQVAFGGFILCKEGEDEHPQCLNSQPHARGSSRAIFSVGPVSPNRRWSHRCYGYDLNSPYVWSSPSDLLELLVPGVSKKPSLSVQPGPVVAPGESLTLQCVSDVGYDRFVLYKEGERDLRQLPGRQPQAGLSQANFTLGPVSRSYGGQYRCYGAYNLSSEWSAPSDPLDILITGQIHGTPFISVQPGPTVASGENVTLLCQSWRQFHTFLLTKAGAADAPLRLRSIHEYPKYQAEFPMSPVTSAHAGTYRCYGSLNSDPYLLSHPSEPLELVVSGPSMGSSPPPTGPISTPAGPEDQPLTPTGSDPQSGLGRHLGVVIGILVAVVLLLLLLLLLFLILRHRRQGKHWTSTQRKADFQHPAGAVGPEPTDRGLQWRSSPAADAQEENLYAAVKDTQPEDGVEMDTRAAASEAPQDVTYAQLHSLTLRRKATEPPPSQEREPPAEPSIYATLAIH
notes: Full-length human cDNA clone expressed in COS7 cells; also called MIG10; ILT4
Regarding B2, the binding result with AP-Nogo66 is on record as “binds”.
